Experimental data: patent US7807788
Values joined by “and” are separate entries in the source; they are usually repeats but may differ in a detail not shown here. Equal entries are not always repeated.

Assays:
IL-13 16 mer peptide 36 = target: T1, IL-13 16 mer peptide 36; assay: 16 mer peptide ELISA; peptide 36
T1 sequence (peptide, N-terminal biotin; C-terminal amide): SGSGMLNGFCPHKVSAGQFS

IL-13 16 mer peptide 2 = target: T2, IL-13 16 mer peptide 2; assay: 16 mer peptide ELISA; peptide 2
T2 sequence (peptide, N-terminal biotin; C-terminal amide): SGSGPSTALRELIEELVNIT

IL-13 16 mer peptide 4 = target: T3, IL-13 16 mer peptide 4; assay: 16 mer peptide ELISA; peptide 4
T3 sequence (peptide, N-terminal biotin; C-terminal amide): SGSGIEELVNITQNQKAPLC

IL-13 16 mer peptide 13 = target: T4, IL-13 16 mer peptide 13; assay: 16 mer peptide ELISA; peptide 13
T4 sequence (peptide, N-terminal biotin; C-terminal amide): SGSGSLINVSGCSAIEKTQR

IL-13 16 mer peptide 30 = target: T5, IL-13 16 mer peptide 30; assay: 16 mer peptide ELISA; peptide 30
T5 sequence (peptide, N-terminal biotin; C-terminal amide): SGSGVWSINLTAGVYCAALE

IL-13 16 mer peptide 9 = target: T6, IL-13 16 mer peptide 9; assay: 16 mer peptide ELISA; peptide 9
T6 sequence (peptide, N-terminal biotin; C-terminal amide): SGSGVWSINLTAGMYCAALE

IL-13 16 mer peptide 5 = target: T7, IL-13 16 mer peptide 5; assay: 16 mer peptide ELISA; peptide 5
T7 sequence (peptide, N-terminal biotin; C-terminal amide): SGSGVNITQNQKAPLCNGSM

IL-13 16 mer peptide 12 = target: T8, IL-13 16 mer peptide 12; assay: 16 mer peptide ELISA; peptide 12
T8 sequence (peptide, N-terminal biotin; C-terminal amide): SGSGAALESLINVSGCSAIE

IL-13 16 mer peptide 34 = target: T9, IL-13 16 mer peptide 34; assay: 16 mer peptide ELISA; peptide 34
T9 sequence (peptide, N-terminal biotin; C-terminal amide): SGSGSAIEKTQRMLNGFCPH

IL-13 16 mer peptide 18 = target: T10, IL-13 16 mer peptide 18; assay: 16 mer peptide ELISA; peptide 18
T10 sequence (peptide, N-terminal biotin; C-terminal amide): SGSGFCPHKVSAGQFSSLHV

IL-13 16 mer peptide 15 = target: T11, IL-13 16 mer peptide 15; assay: 16 mer peptide ELISA; peptide 15
T11 sequence (peptide, N-terminal biotin; C-terminal amide): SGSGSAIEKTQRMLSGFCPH

IL-13 16 mer peptide 29 = target: T12, IL-13 16 mer peptide 29; assay: 16 mer peptide ELISA; peptide 29
T12 sequence (peptide, N-terminal biotin; C-terminal amide): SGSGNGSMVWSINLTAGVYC

IL-13 16 mer peptide 20 = target: T13, IL-13 16 mer peptide 20; assay: 16 mer peptide ELISA; peptide 20
T13 sequence (peptide, N-terminal biotin; C-terminal amide): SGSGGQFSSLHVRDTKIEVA

IL-13 16 mer peptide 37 = target: T14, IL-13 16 mer peptide 37; assay: 16 mer peptide ELISA; peptide 37
T14 sequence (peptide, N-terminal biotin; C-terminal amide): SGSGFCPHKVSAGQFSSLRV

IL-13 16 mer peptide 42 = target: T15, IL-13 16 mer peptide 42; assay: 16 mer peptide ELISA; peptide 42
T15 sequence (peptide, N-terminal biotin; C-terminal amide): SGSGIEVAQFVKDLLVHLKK

IL-13 16 mer peptide 31 = target: T16, IL-13 16 mer peptide 31; assay: 16 mer peptide ELISA; peptide 31
T16 sequence (peptide, N-terminal biotin; C-terminal amide): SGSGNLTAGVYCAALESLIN

IL-13 16 mer peptide 21 = target: T17, IL-13 16 mer peptide 21; assay: 16 mer peptide ELISA; peptide 21
T17 sequence (peptide, N-terminal biotin; C-terminal amide): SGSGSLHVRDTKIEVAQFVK

IL-13 16 mer peptide 23 = target: T18, IL-13 16 mer peptide 23; assay: 16 mer peptide ELISA; peptide 23
T18 sequence (peptide, N-terminal biotin; C-terminal amide): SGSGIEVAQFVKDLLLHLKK

IL-13 16 mer peptide 22 = target: T19, IL-13 16 mer peptide 22; assay: 16 mer peptide ELISA; peptide 22
T19 sequence (peptide, N-terminal biotin; C-terminal amide): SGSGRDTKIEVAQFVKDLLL

IL-13 16 mer peptide 19 = target: T20, IL-13 16 mer peptide 19; assay: 16 mer peptide ELISA; peptide 19
T20 sequence (peptide, N-terminal biotin; C-terminal amide): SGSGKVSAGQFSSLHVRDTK

IL-13 16 mer peptide 38 = target: T21, IL-13 16 mer peptide 38; assay: 16 mer peptide ELISA; peptide 38
T21 sequence (peptide, N-terminal biotin; C-terminal amide): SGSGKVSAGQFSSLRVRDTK

IL-13 16 mer peptide 28 = target: T22, IL-13 16 mer peptide 28; assay: 16 mer peptide ELISA; peptide 28
T22 sequence (peptide, N-terminal biotin; C-terminal amide): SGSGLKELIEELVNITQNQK

IL-13 16 mer peptide 7 = target: T23, IL-13 16 mer peptide 7; assay: 16 mer peptide ELISA; peptide 7
T23 sequence (peptide, N-terminal biotin; C-terminal amide): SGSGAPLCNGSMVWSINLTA

IL-13 16 mer peptide 33 = target: T24, IL-13 16 mer peptide 33; assay: 16 mer peptide ELISA; peptide 33
T24 sequence (peptide, N-terminal biotin; C-terminal amide): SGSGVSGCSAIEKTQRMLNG

IL-13 16 mer peptide 32 = target: T25, IL-13 16 mer peptide 32; assay: 16 mer peptide ELISA; peptide 32
T25 sequence (peptide, N-terminal biotin; C-terminal amide): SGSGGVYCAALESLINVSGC

IL-13 16 mer peptide 27 = target: T26, IL-13 16 mer peptide 27; assay: 16 mer peptide ELISA; peptide 27
T26 sequence (peptide, N-terminal biotin; C-terminal amide): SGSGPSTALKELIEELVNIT

IL-13 16 mer peptide 40 = target: T27, IL-13 16 mer peptide 40; assay: 16 mer peptide ELISA; peptide 40
T27 sequence (peptide, N-terminal biotin; C-terminal amide): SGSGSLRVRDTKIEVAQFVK

IL-13 16 mer peptide 3 = target: T28, IL-13 16 mer peptide 3; assay: 16 mer peptide ELISA; peptide 3
T28 sequence (peptide, N-terminal biotin; C-terminal amide): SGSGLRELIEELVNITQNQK

IL-13 16 mer peptide 11 = target: T29, IL-13 16 mer peptide 11; assay: 16 mer peptide ELISA; peptide 11
T29 sequence (peptide, N-terminal biotin; C-terminal amide): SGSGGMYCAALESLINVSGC

IL-13 16 mer peptide 8 = target: T30, IL-13 16 mer peptide 8; assay: 16 mer peptide ELISA; peptide 8
T30 sequence (peptide, N-terminal biotin; C-terminal amide): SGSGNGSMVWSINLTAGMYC

IL-13 16 mer peptide 39 = target: T31, IL-13 16 mer peptide 39; assay: 16 mer peptide ELISA; peptide 39
T31 sequence (peptide, N-terminal biotin; C-terminal amide): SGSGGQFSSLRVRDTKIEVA

IL-13 16 mer peptide 41 = target: T32, IL-13 16 mer peptide 41; assay: 16 mer peptide ELISA; peptide 41
T32 sequence (peptide, by the resolver, N-terminal biotin on the SGSG spacer; C-terminal amide): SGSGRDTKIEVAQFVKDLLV

IL-13 16 mer peptide 17 = target: T33, IL-13 16 mer peptide 17; assay: 16 mer peptide ELISA; peptide 17
T33 sequence (peptide, N-terminal biotin; C-terminal amide): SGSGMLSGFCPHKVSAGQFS

IL-13 16 mer peptide 6 = target: T34, IL-13 16 mer peptide 6; assay: 16 mer peptide ELISA; peptide 6
T34 sequence (peptide, N-terminal biotin; C-terminal amide): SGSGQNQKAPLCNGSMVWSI

IL-13 16 mer peptide 10 = target: T35, IL-13 16 mer peptide 10; assay: 16 mer peptide ELISA; peptide 10
T35 sequence (peptide, N-terminal biotin; C-terminal amide): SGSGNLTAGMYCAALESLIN

IL-13 16 mer peptide 16 = target: T36, IL-13 16 mer peptide 16; assay: 16 mer peptide ELISA; peptide 16
T36 sequence (peptide, N-terminal biotin; C-terminal amide): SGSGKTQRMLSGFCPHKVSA

IL-13 16 mer peptide 35 = target: T37, IL-13 16 mer peptide 35; assay: 16 mer peptide ELISA; peptide 35
T37 sequence (peptide, N-terminal biotin; C-terminal amide): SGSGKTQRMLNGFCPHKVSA

IL-13 16 mer peptide 14 = target: T38, IL-13 16 mer peptide 14; assay: 16 mer peptide ELISA; peptide 14
T38 sequence (peptide, N-terminal biotin; C-terminal amide): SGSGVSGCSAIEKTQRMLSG

B1: mouse monoclonal antibody 6A1 (antibody, mouse IgG1, V domains shown)
VH: EIQLQQSVAELVRPGASVRLSCTASGFYIKDTYMHWVIQRPEQGLEWIGTIDPANGNTKYVPKFQGKATITADTSSNTAYLRLSSLTSEDTAIYYCARSIYDDYHYDDYYAMDYWGQGTSVTVSS
VL: DVLMTQTPLSLPVSLGDQASISCRSSQNIVHINGNTYLEWYLQKPGQSPKLLIYKISDRFSGVPDRFSGSGSGTDFTLKISRVEAEDLGVYYCFQGSHVPWTFGGGTKLEIK
- absorbance at 490 nm (IL-13 16 mer peptide 36): 0.073 A490 and 0.074 A490
- absorbance at 490 nm (IL-13 16 mer peptide 2): 0.057 A490 and 0.068 A490
- absorbance at 490 nm (IL-13 16 mer peptide 4): 0.079 A490 and 0.105 A490
- absorbance at 490 nm (IL-13 16 mer peptide 13): 0.066 A490 and 0.063 A490
- absorbance at 490 nm (IL-13 16 mer peptide 30): 0.062 A490
- absorbance at 490 nm (IL-13 16 mer peptide 9): 0.061 A490 and 0.07 A490
- absorbance at 490 nm (IL-13 16 mer peptide 5): 0.063 A490 and 0.065 A490
- absorbance at 490 nm (IL-13 16 mer peptide 12): 0.075 A490 and 0.062 A490
- absorbance at 490 nm (IL-13 16 mer peptide 34): 0.082 A490 and 0.067 A490
- absorbance at 490 nm (IL-13 16 mer peptide 18): 0.073 A490 and 0.09 A490
- absorbance at 490 nm (IL-13 16 mer peptide 15): 0.081 A490 and 0.129 A490
- absorbance at 490 nm (IL-13 16 mer peptide 29): 0.098 A490 and 0.071 A490
- absorbance at 490 nm (IL-13 16 mer peptide 20): 0.06 A490 and 0.104 A490
- absorbance at 490 nm (IL-13 16 mer peptide 37): 0.068 A490 and 0.063 A490
- absorbance at 490 nm (IL-13 16 mer peptide 42): 0.104 A490 and 0.108 A490
- absorbance at 490 nm (IL-13 16 mer peptide 31): 0.064 A490 and 0.056 A490
- absorbance at 490 nm (IL-13 16 mer peptide 21): 0.061 A490 and 0.078 A490
- absorbance at 490 nm (IL-13 16 mer peptide 23): 0.144 A490 and 0.135 A490
- absorbance at 490 nm (IL-13 16 mer peptide 22): 0.09 A490 and 0.076 A490
- absorbance at 490 nm (IL-13 16 mer peptide 19): 0.077 A490 and 0.063 A490
- absorbance at 490 nm (IL-13 16 mer peptide 38): 0.067 A490 and 0.056 A490
- absorbance at 490 nm (IL-13 16 mer peptide 28): 0.074 A490 and 0.078 A490
- absorbance at 490 nm (IL-13 16 mer peptide 7): 0.061 A490 and 0.072 A490
- absorbance at 490 nm (IL-13 16 mer peptide 33): 0.088 A490 and 0.084 A490
- absorbance at 490 nm (IL-13 16 mer peptide 32): 0.071 A490 and 0.057 A490
- absorbance at 490 nm (IL-13 16 mer peptide 27): 0.06 A490 and 0.082 A490
- absorbance at 490 nm (IL-13 16 mer peptide 40): 0.06 A490
- absorbance at 490 nm (IL-13 16 mer peptide 3): 0.067 A490 and 0.07 A490
- absorbance at 490 nm (IL-13 16 mer peptide 11): 0.064 A490 and 0.061 A490
- absorbance at 490 nm (IL-13 16 mer peptide 8): 0.084 A490 and 0.071 A490
- absorbance at 490 nm (IL-13 16 mer peptide 39): 0.057 A490 and 0.055 A490
- absorbance at 490 nm (IL-13 16 mer peptide 41): 0.058 A490
- absorbance at 490 nm (IL-13 16 mer peptide 17): 0.064 A490 and 0.06 A490
- absorbance at 490 nm (IL-13 16 mer peptide 6): 0.072 A490 and 0.075 A490
- absorbance at 490 nm (IL-13 16 mer peptide 10): 0.075 A490 and 0.064 A490
- absorbance at 490 nm (IL-13 16 mer peptide 16): 0.099 A490 and 0.141 A490
- absorbance at 490 nm (IL-13 16 mer peptide 35): 0.089 A490 and 0.09 A490
- absorbance at 490 nm (IL-13 16 mer peptide 14): 0.119 A490 and 0.115 A490
